Measurements taken from patent US20050241007.

System: Frog Prince transposase (consensus, FP) (Rana pipiens)
Assay: cell_activity
Conditions: G418-resistant colony increase in HeLa cells

Chain of Frog Prince transposase (consensus, FP) (Rana pipiens) (chain, as listed by the source): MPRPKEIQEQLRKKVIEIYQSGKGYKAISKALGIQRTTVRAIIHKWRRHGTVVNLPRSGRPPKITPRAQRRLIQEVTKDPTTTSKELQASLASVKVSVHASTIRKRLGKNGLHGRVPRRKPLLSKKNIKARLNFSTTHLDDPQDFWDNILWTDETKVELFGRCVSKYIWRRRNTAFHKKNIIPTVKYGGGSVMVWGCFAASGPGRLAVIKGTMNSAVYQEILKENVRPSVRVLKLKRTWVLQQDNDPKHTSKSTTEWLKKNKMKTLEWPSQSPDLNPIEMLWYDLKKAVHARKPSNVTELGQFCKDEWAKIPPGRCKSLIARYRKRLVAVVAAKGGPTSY

Row | Substance | activity (transposition) [fold] | activity (cross-mobilization) [fold]
1 | CAGTGGTGTGAAAAAGTGTTTGCCCCCTTCCTCATTTCCTGTTCCTTTGCATGTTTGTCACACTTAAGTGTTTCGGAACATCAAACCAATTTAAACAATAGTCAAGGACAACACAAGTAAACACAAAATGCAATTTGTAAATGAAGGTGTTTATTATTAAAGGTGAAAAAAAATCCAAACCATCATGGCCCTGTGTGAAAAAGTGATTGCCCCCCTTGTTAAAACATACTATAACTGTGGTTGTCCACAC (double strand) [Frog Prince transposon inverted repeat (pFrogPrince-neo)] | 17 | 
2 | Txr transposon (pTxr-neo) |  | 5
